The data set can be described thus: soluble on expression in E. coli; label from the status in PepcDB or PDB records.
On to “HSQITLRGNAINTVGELPAVGSPAPAFTLTGGDLGVISSDQFRGKSVLLNIFPSVDTPVSATSVRTFDERAAASGATVLCVSKDLPFAQKRFCGAEGTENVMPASAFRDSFGEDYGVTIADGPMAGLLARAIVVIGADGNVAYTELVPEIAQEPNYEAALAALGA”, for which the “soluble on expression in E. coli” value was “soluble”. Take “SHMQPFVYMAAPARIVFSAGSSADVAEEIRRLGLSRALVLSTPQQKGDAEALASRLGRLAAGVFSEAAMHTPVEVTKTAVEAYRAAGADCVVSLGGGSTTGLGKAIALRTDAAQIVIPTTYAGSEVTPILGQTENGVKTTMRGPEILPEVVIYDAELTLGLPVAISMTSGLNAMAHAAEALYARDRNPIASMMAVEGLRAMIEALPVVRQAPHDIGARETALYGAWLCGTVLGAVGMSLHHKLCHTLGGSLDLPHAETHAVLLPHTIAYVEEAAPNLLAPLAALVGGRAGAGLFDFAARLGAPSSLAALGVGADDLDPMAELATANPYWCPRPIEKTAIRDLLQRAFEGARPA”: the “soluble on expression in E. coli” value was “soluble”. Under “MAHHHHHHMVIFDDVENSNRVGGNEGGIRPIFVQLTPNAPLPSEEYLRLVALSKAPPPPDSEGSTLHSARNCRERSARVNGRRSPTKTNVRPRPPVTATQKWGDNAMSLINSKEEAVQRHEFALHVRGARYCRLLETMLDSSDLQLEPLHYDPKDPNMGRRPNGTEGNPANSLPPVILPQATQKGCVALFTYLDLITKRVPSMLSKPLRAPLEELVQPWELEFLLYSCMGDDVRNAITHIDEDGTADKRGRAPTNDTRPSYYSTILEKAPRSVDLLLEVALLSDFLLVEPLRQLTCAFIASLALNASSEEELLQLSGLQRPMTEDELEPLYYQFPFLRPDNHAKN” stands “not soluble”; under “MSLKILFSPSESKNENCTKNPIDENSFIFKELFPYRMEALKHYGEFIKNASLKNLQELFGIKNENEIDKFKHDLKQAPTQEAIMLYTGVSYEYLNFKALDKKSQAYILENTLIFSNLFGVVRANDTLPFYKFKQGAKIGNFTIEKFYKEHFSKALDEYLENEEILDLRAGFYDKFYTPKKKFYTYKFVKNGKVISHFAKAYRGILLSISAKNQVKNNKELLANLPSNLKLKEIQIKGLKEEIALEILDEGHHHHHH”, “soluble”; under “GPGSGDPYWAYSGAYGPEHWVTSSVSCGGSHQSPIDILDHHARVGDEYQELQLDGFDNESSNKTWMKNTGKTVAILLKDDYFVSGAGLPGRFKAEKVEFHWGHSNGSAGSEHSVNGRRFPVEMQIFFYNPDDFDSFQTAISENRIIGAMAIFFQVSPRDNSALDPIIHGLKGVVHHEKETFLDPFILRDLLPASLGSYYRYTGSLTTPPCSEIVEWIVFRRPVPISYHQLEAFYSIFTTEQQDHVKSVEYLRNNFRPQQALNDRVVSKS”, “soluble”.

With “MSLKIKVYLYTRVSTSIQIEGYSLEAQKSRMKAFAIYNDYEIVGEYEDAGKSGKSIEGRIQFNRMMEDIKSGKDGVSFVLVFKLSRFARNAADVLSTLHIMQDYGVNLICVEDGIDSSKDAGKLMISVLSAVAEIERENIRIQTMEGRIQKAREGKWNGGFAPYGYKLEDGKLFINEEEAVAIRTIFDQYVNTTIGANGISKYLENHGIRKIPRQNGKNPLFDAGLIRKILKNPVYNGKIAFGRRTLEKVHGTRNEYKQVEQDEYLISEGIHEAIVSDEVWQAAQVKLKSQAKKYEHVNKGKDTRTHLLSGIVKCPICGVGMFGNKCIKKKKDGTKYKDFYYYGCNHRQMIRGHKCTFSKQIREELLDDAVAEVIVKIVSNPKFASMMQEKINMKVDTSEIEKEIDNYQKELRKSHSTKFKLIEEIDNLDVEDKHYKRRKQDLDDRLYRMYDKIDELESSLIDAKAKKQTIEAEKLTGDNIYKVLIYFDKLYKVMNDVERRQLISALISEIQVYEEKQSNGQWLKSITFKLPIIEENLNIDLDNDEQVECVSLLEKRSEGHHHHHH”, the “soluble on expression in E. coli” value was “soluble”.

In the case of “KENGKRTEVKIGAKTSVMKEKDGKLFTGKANKETNKVDGANATEDADEGKGLVTAKDVIDAVNKTGWRIKTTDANGQNGDFATVASGTNVTFASGNGTTATVTNGTDGITVKYDAK”, the “soluble on expression in E. coli” value is “soluble”. With “MSVEASNQENSLSSFLLKCAFPAGTTPPLLSPPSSSGSYEEAQFSLFVNQNETEQKLFSNQSLANRDPCTIPDELHQEMKSLKKKEEAFKTSLCGFHRRGQKCAYGEKCKFAHSVHELRFPQTKRNHRNYKTVLCNNFSTTGHCKYGIRCQFIHRSMNSTSSNQSNKMENITIDLNVQSDVFRAFALDSTSLLPNWHCSALLQ”, the “soluble on expression in E. coli” value is “not soluble”. With “MGSDKIHHHHHHLRVKKKWFIPIGILALSSWFLYRENNQIDTTAVTVQSDKLPAAFNDYKILQIADLHGKSFGSRQKVLLKKVNKLQPDVILMTGDLIDSRRNGEEEALLLMKQLTPDYPVYFVTGNHEVRLNLTILPKLEQLGVTVLRNTSVSLEQNGQFIELLGIDDPTTTRWSEGLQEPDGIRQSLDQAQSTAETRSFQLLMAHRPEYLPLYAERKVDLVLSGHAHGGQIRLPFTDGMYAPGQGFFPDLTAGQHTMENTRLIISRGLGNSLFPFRIFNHPELIVVTLRT” the entry was “not soluble”; with “VIGDMNPDFLGSVSTGLTWKNLSFRMALDMRFGGKVAVYGNRYGTAYGWTESSLKFRDEAHGGMTWTSQYLNADGSQSGSYGVTYHDGMIPQGIFASGTQVTGIDGKTHDVSGMSYQQAYENGILEPMHAASYYNYANQWSTGVTNDGWIHDLKYIALREITVGYTFPSNIAGKIGAKRLGVSFSARNLGYLYNSLPNDVNPEGVRGNLSGEFRIRSFDPYTANYTMTINVGF”, “not soluble”. With “MSFNDLYKASIYTMLGSIYAPSGGVIAAPTTSLPEVEGGKRNWDYRFAWVRDSSIIAEALLEAGSIVEARRIINFLLSLINFSSKPFYYPLYTIEGTIPPPERELRWLSGYKNSKPVRIGNGASSQIQLDIEGFFISALYKYVKMTNDQVFLKDVFSKVKYIGDWISENWSLKDSGIWEDRGSPQHYTHSKIMMWIALDKIGKLANLIGYADIWAKEREKLRNWIFTNCVKNNYFIRYCGNTDDVDSSLLSAPLYGFIEVSDSTFINTLTKIENDLKTDVFVKRYKTDFMGEAKHPFLLTTVWLARVYMRLGKIDSAIEILNKINKVSRELHLVGEHVDVEKGEFTGNFPQIFVHAQLVIAIKELNDTLTDKNIILEHHHHHH” the entry was “not soluble”; with “AVKEMVYRTRLANGLTVALLPKKEFKEVYGSVTVQFGSVDTFVTEVDGDVKQYPGGIAHFLEHKLFEREDSSDLMSAFTSLGADSNAFTSFTKTNYLFSATDYFLENLDLLDELVTSAHFTEASILTEQDIIQQEREMYQDDPDSCLFFSTLANLYPGTPLATDIVGSEESISQINLTNLQENFTKFYKPVNMSLFLVGNFDVERVQDYFESKELKDSDFQEVAR”, “not soluble”; with “MGHHHHHHSHMEPRVTQRKRPLDGCMGKITGITSDILKYDHKCFKLSLPAKFPEVCGSDEVFPDPDLLHVLPVAGSLQQSIDQCCLQLESLCRPGLLCAHPTLLFKLHSSMKNRPFFSLIYTYVKKTQQVRKRDRKPRGQVAAGPNPTSVM”, “not soluble”. For “MGSDKIHHHHHHMKESMSITSSTYASALLTLPWGTPLEQWPDNLIAALPRGISRHIVRFVGINRGIVAVKEIGARTAHHEYKMLRELQRLGAPSVRPVAVITGRHPAEEDYGELTAALVTEHLEFSLPYREIFSRHLTVVESEKLIRALSVLLVRMHLLNFYWGDVSLSNTLFRRDAETYSAYLVDAETGEFQPNLSESRRLYDVDIARVNIIGELMDLQAGECLDKSIDVIALGGLVESSYLELWTELTAEESVDASEYWRLSERIDRLNQLGFDVGELKVTKDDSRQVVRIRPVVVDPGHYRAELLSLTGLSVEEHQAQRLLGSIQAYQAVECGPHVGLTQAAHLWMTNEYEPTIAAVPVEMLDKLEPAQIFHEIVDHRWFLAQERGGAVTLPEATASYLESVLPARRDEARLLSTNPSDEDLS”, the “soluble on expression in E. coli” value is given as “not soluble”. “MGSDKIHHHHHHMKIAFDVDVIKDLGITRMVHQVAEWGYKYIEQSPHPQINPFYKHPRASREIMAEYKQALRDTGLELSSFICVYRWSGPDELRRQAAVKNWKRLVEIAVEMGVQVINTEFSGDPNQPEICDEMFYRSMEELLPIFEREGIRVEIQAHPWDFCEENNETVDIVKSFRSDNVKYVYSVPHTFFYDKGVGDVASMLRYAGSDLSHVLIADTRNHTKHCRYIVNPPGVDAVVHQHVGVGEGDVDFDALFRTLREMKFAEQTFKVGGAPIVATSLFGYPEKMKYQAVETRELIERELLRR”: the “soluble on expression in E. coli” value is listed as “not soluble”.

The values are drawn from the DeepSol protein solubility set.
